Data set [1] concerns the target 3xHA-Sec61β soluble domain-Omp25 TMD-3F4 (single substrate). Particulars: 3 μM recombinant 3xFLAG-UBQLN2 variants; parent: est. 49; read off a plot.
Data set [2] concerns the molecule itself. In words: crystal structure; STI1-FrzS-TMD fusion construct; hanging-drop vapor diffusion at 4 °C, 2.5% MPD, 100 mM Tris pH 8.5; 1.98 Å.

Turning to “3xFLAG-UBQLN2 (wild type), recombinant (from UniProt Q9UHD9) M446R”, the response (Elution / Input) in data set [1] worked out at 57.

For “3xFLAG-UBQLN2 (wild type), recombinant (from UniProt Q9UHD9) P440L”, the response (Elution / Input) in data set [1] turned out to be 54.

B1: variant of the VAMP2 TMD, as it stands in the crystallization construct (peptide)
peptide: MMIALGVACAIALAIAAVYF
notes: variant of the VAMP2 TMD; Written as a molecule of its own because it is joined with the STI1 domain on one chain for the structure; in the experiment it was part of m1; source: part of the STI1-FrzS-TMD fusion; E. coli BL21 DE3 pRIL, purified (Ni-NTA, SEC)
On to B1, for which, in data set [2], the binding result is recorded as “binds”.

For the origin of these results see article PMC13083928, “ALS mutations disrupt self-association between the ubiquilin STI1 hydrophobic groove and internal placeholder sequences” (The EMBO Journal, 2026).
